Source: the RNAGym collection of RNA variant scans (doi:10.1073/pnas.2313332121)

B1: TPR t1 (parent)
chain: GACCAAUCUGCCCUCAGAGCUCGAGAACAUCUUCGGAUGCAGAGGAGGCAGGCUUCGGUGGCGCGAUAGCGCCAACGUCCUCAACCUCCAAUGCAUCCCACCACAUGAUGAUGCCUGAAGAGCCUUGGUUUUUUG

Variants of: B1
Test: polymerase ribozyme fitness, log enrichment relative to wild type (log ratio); higher = more active; in vitro selection for triplet polymerase activity
In short: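 Only genotypes with ≥10 input reads and ≥1 read per output were kept after Illumina sequencing of input and output libraries. These libraries were PCR-built, transcribed mutants of each subunit of a heterodimeric triplet polymerase ribozyme, each put through one triplicate in vitro selection round with frozen incubation at −7 °C, gel excision of extended constructs, streptavidin-bead capture and RT-PCR. Fitness is a logarithmic ratio of genotype enrichment to wild-type enrichment, from inverse-variance-weighted replicate averages, with the logarithm in base 2.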

| Variant | polymerase ribozyme fitness (log ratio) |
| --- | --- |
| A43C U125G | -2.24 |
| G44U G58C C62A | -2.17 |
| A43U G110A | -3.03 |
| G44C C102A | -3.4 |
| A43U A111U | -4.27 |
| G44C G93A | -0.685 |
| G44C G93U | -2.85 |
| G44U G77C | -2.05 |
| G44U U96C G120A G122A U129G | -2.51 |
| A43G C72U U112C G122U | -0.894 |
| A43C C56U U78C U125A | -3.15 |
| G44A A68G | -3.75 |
| A43U C56A C85G U133A | -4.39 |
| A43U C104A A118U | -4.29 |
| A43G A84U | -1.9 |
| G44A G63A | -2.44 |
| A43U U131A | -1.44 |
| G44A G113A U130C | -2.43 |
| G44U U59C G110A G127A U132A | -4.19 |
| A43U G44C G63A | -2.96 |
| A43G U133A | -1.57 |
| A43G C72A | -1.13 |
| A43C G51U C82G A121U | -6.24 |
| G45A C53G | -0.662 |

| Variant | polymerase ribozyme fitness (log ratio) |
| --- | --- |
| G42U C124G G135C | 0.643 |
| G44U G71U C104U U106A | -1.53 |
| A43U G60U C64G C73G C85U C98G C115U | -6.57 |
| G44C G63A A121G | 0.865 |
| A43U G45A C56G G113A | -0.304 |
| A43G A100U | -2.72 |
| G44C C56U C79A C101U | -2.56 |
| G44A G60C | 0.513 |
| A43U A46G C62G | -4.27 |
| A43C C114U G122A | -3.24 |
| G44U G63C U78A | -0.651 |
| G45A C85G | -3.89 |
| A43U G45U C115G | -3.44 |
| G44U G71A U130A | -2.12 |
| G44U C64G | -7.29 |
| A43G C56U U109A G117U | -5.89 |
| G44A C56A C89U C97U U116A | -3.63 |
| G44U C62A | -2.41 |
| G44U U96A | -2.64 |
| A43C A46C C62U U87A C101U | -2.85 |
| G44U A46G G117A C124U | -1.75 |
| G44U C72U C115U U129G | -4.96 |
| A43C C82A | -2.48 |
| G44C U92G U112C | -0.938 |

| Variant | polymerase ribozyme fitness (log ratio) |
| --- | --- |
| A43G U109A | -6.81 |
| G44A U96G | -2.12 |
| G42U G45C C70U A83G | -5.2 |
| A43U G52U A68G | -4.56 |
| A43U G44U G48A G122A | -2.63 |
| G42U U78C C94G A100C | -4.78 |
| A43G G44C A46U G63C G120A | -5.64 |
| G45A G48A C86A C89U | -2.36 |
| G42U G52U A105C | -6.66 |
| A43C G57U G77U | -2.72 |
| G44U A121U | 0.755 |
| G44C A46G | -0.686 |
| A43G C82G U87C G93U | -6.73 |
| G44A A46U C85U C86G | -4.71 |
| G44C C99U G110A | -6.64 |
| A43U G58U U126G | -3.62 |
| G42U U106A G120C | -2.14 |
| G44U U54C C64U C102U G113A G128U | -6.53 |
| G42U U59A C62G C88G A90U C98U | -7.74 |
| A43C C53U | -2.24 |
| G44U G60U C94U | -0.792 |
| G42U C102A | -5.37 |
| G44A A46U G47C A74G G93A | -3.83 |
| G44A C53A C56A | -1.42 |

| Variant | polymerase ribozyme fitness (log ratio) |
| --- | --- |
| A43U G60C C82A G113A G128C | -4.68 |
| G42U G47C C102A U112G G120U | -6.76 |
| G45A A84C G120C G135A | 0.21 |
| A43G G51C C72U U78G C79A U112A | -5.74 |
| G45A A119G | 0.105 |
| G44C G127A U130G | -2.95 |
| G44U C53A C70A | -2.06 |
| G45A A46U U55C C89U U131A | -0.91 |
| G44A U59A G63A C89G C115A C124A U129A | -5.52 |
| A43U G93C G117A | -4.2 |
| A43C G45U | -3.71 |
| G44U C53G G61C G93A | -2.01 |
| G44A G69C | -2.21 |
| G42U C73A C99U | -6.29 |
| A43C G61A C85G G113A C115U | -5.36 |
| G44U C70A | -2.87 |
| A43G G63A A121G U129A | -3.06 |
| A43G G61U C82G | -2.27 |
| A43U G44A C115A C124A U125C U132A | 0.582 |
| A43U C70A | -3.22 |
| A43G G61A U78C G117U | -4.59 |
| A43C U55G G61C C79U C97U U116G | -5.31 |
| G42U G110U | -3.71 |
| G44U A50U | -2.28 |

| Variant | polymerase ribozyme fitness (log ratio) |
| --- | --- |
| A43G C114G G135U | -3.37 |
| G44U C56G U92A C115A | -4.27 |
| G45A C114U | -2.37 |
| G44A G61C U78C C79G U112G | -3.26 |
| A43C G63A | -4.15 |
| G45A A111G C114A | -5.79 |
| G42U G45C A50G C82U A121G | 0.685 |
| A43U G48U G61A | -1.54 |
| G44A A46U A91G U92A | -5.83 |
| G44A G57A A91G C101G G113U | -4.86 |
| G44A G45U G61U A83C | -1.59 |
| G44C C73U | -0.621 |
| G45A C56G U78A G122A U129G | -1.63 |
| G42U C73A G127A | -2.84 |
| G44A C49G U55G C85U U106G G107C C115G | -6.1 |
| G44A G51A G63U U125A | -7.95 |
| G44C G122A | -1.4 |
| A43C G61A C101G | -4.23 |
| G44U C89G | -0.509 |
| G44U G77C A90U | -1.31 |
| A43U C56A C85G | -3.95 |
| A43C G44U G113A | -3.01 |
| A43G G44U C49G U96A | -2.32 |
| A43U G60U C82A G113A G128C | -4.46 |

| Variant | polymerase ribozyme fitness (log ratio) |
| --- | --- |
| A43U G71U U116C G128C | -5.7 |
| G44C A50G G52U U54C U92C C124A | 0.995 |
| A43U C56A | -1.69 |
| G42U C101U | -1.21 |
| G45A A50U C124U U125G | -0.0022 |
| G42U G60A | -2.16 |
| G44U G60A | -0.946 |
| G44A G71C | -2.21 |
| G45A A50C G63A C82G G117C | -6.01 |
| G44A A50G C73U | -0.0837 |
| G44U C64U C82U U106G G120A | -1.25 |
| G42U C124U | -0.586 |
| G44U A74U C88A U133G | -2.41 |
| G45A G47U A66U C73A C82U | -3.27 |
| A43G U54C C88U | -1.48 |
| A43C G61C | -5.34 |
| A43C G61U | -2.24 |
| A43C C70U | -3.69 |
| G44U G107A | -6.9 |
| G44A C49U G71A G117C U133G | -5.02 |
| A43G C88G G113U A121G | -3.25 |
| G45A C62A | -1.81 |
| G45A C62U | -0.924 |
| A43C U59C C80A | -6.52 |

| Variant | polymerase ribozyme fitness (log ratio) |
| --- | --- |
| G44C G69U A121C | 1.9 |
| G44A C98A A111U | -5.83 |
| G44U A50U C101A C115A | -2.8 |
| A43G C56U | -1.77 |
| G42U C56U C86U | -1.14 |
| G44C U59C | -1.09 |
| A43G C73U C79A U96G A118U | -4.39 |
| G45A C53A C86A U133A | -1.69 |
| G42U C73U G117A | -3.05 |
| G44A C49U U106G | -5.12 |
| A43C U129G | -3.27 |
| A43G C80A C115G | -7.29 |
| G44C C76U U78A | -1.08 |
| A43C U54A | -2.54 |
| G44A C70U C89A A100U U133C | -3.92 |
| G44A G71A A91G U116A G122A C124U | -4.96 |
| G44U G51A | -5.35 |
| A43U G57C C98U U126A | -4.59 |
| G44C G69U U78C A95U C101U | -0.81 |
| G42U G45C C76U | -2.43 |
| G44A C82G | -1.66 |
| A43G G52C C53A G61A U96C | -2.66 |
| G42U C88G C101A G120C | -3.53 |
